Source: PMC9863593, “Crystal Structure of Allantoinase from Escherichia coli BL21: A Molecular Insight into a Role of the Active Site Loops in Catalysis” (Molecules, 2023)

Biological target: the molecule itself
Assay: crystal structure; hanging drop vapor diffusion, room temperature, 20% PEG8000, 100 mM CHES pH 9.5; protein at 30 mg/mL; space group C121; four monomers per asymmetric unit; 2.07 Å

B1: Allantoinase from Escherichia coli BL21 (enzyme)
chain: MSFDLIIKNGTVILENEARVVDIAVKGGKIAAIGQDLGDAKEVMDASGLVVSPGMVDAHTHISEPGRSHWEGYETGTRAAAKGGITTMIEMPLNQLPATVDRASIELKFDAAKGKLTIDAAQLGGLVSYNIDRLHELDEVGVVGFKCFVATCGDRGIDNDFRDVNDWQFFKGAQKLGELGQPVLVHCENALICDELGEEAKREGRVTAHDYVASRPVFTEVEAIRRVLYLAKVAGCRLHVCHVSSPEGVEEVTRARQEGQDVTCESCPHYFVLDTDQFEEIGTLAKCSPPIRDLENQKGMWEKLFNGEIDCLVSDHSPCPPEMKAGNIMEAWGGIAGLQNCMDVMFDEAVQKRGMSLPMFGKLMATNAADIFGLQQKGRIAPGKDADFVFIQPNSSYVLTNDDLEYRHKVSPYVGRTIGARITKTILRGDVIYDIEQGFPVAPKGQFILKHQQ
modifications: carbamylated lysine at 146 (Kcx146)
notes: Allantoinase (allB, ECD_00462) of E. coli BL21; predicted monomer of 453 amino acid residues, 49.6 kDa; Zinc-amended enzyme with 2 Zn ions per monomer; construct limits and tag are not described here; Residues 452-453 are said to be seen in the structure; also called EcALLase-BL21; E. coli BL21 ALLase
  stoichiometry N: 4
